Measurements published in US20180237511A1 (Sanofi, published 2018).

Molecular target: T1, human beta-dystroglycan extracellular domain (soluble) (human, UniProt Q14118 654-749)
T1 construct: extracellular domain; The expression construct of soluble human beta-DG is not described (only the mouse one); also called hBeta-DG; hbeta-DG
T1 sequence (looked up): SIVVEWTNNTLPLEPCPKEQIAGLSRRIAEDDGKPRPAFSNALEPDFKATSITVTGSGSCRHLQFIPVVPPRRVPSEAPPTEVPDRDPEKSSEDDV
Test: SPR, antibody on Protein G chip, beta-DG in flow, 1:1 model (table title says laminin-2; paragraph 445 says human beta-DG)
Procedure: Data was evaluated with a 1:1 binding model using the BIAevaluation software.
SPR was used as described above to analyze the kinetics of triAb binding to laminin-2 (Table N) or beta-DG (Table O).

| Binder | Kd [nM] | koff [s⁻¹] | kon [M⁻¹ s⁻¹] |
| --- | --- | --- | --- |
| triAb 3423 (bispecific antibody, Trivalent: CODV arm VH1/VL1 C3_Hu10, VH2/VL2 C21_Hu11) light 1: EIVLTQSPDFLSVTPKEKVTLSCRASQSISNYLHWYQQKSDQSPKLLIKYASQSISGIPSRFSGSGSGTDFTLSINSVEAEDAATYFCQQSKSWPRTFGGGTKLEIKDKTHTEIVLTQSPDFLSVTPKEKVTLTCRASQSISNNLHWYQQKSDQSPKLLIKYASQSISGIPSRFSGSGSGTDFTLTINSVEAEDAATYFCQQSKSWPRTFGGGTKLEIKDKTHTRTVAAPSVFIFPPSDEQLKSGTASVVCLLNNFYPREAKVQWKVDNALQSGNSQESVTEQDSKDSTYSLSSTLTLSKADYEKHKVYACEVTHQGLSSPVTKSFNRGEC heavy 1: EVQLVESGGGLVKPGGSLRLSCAASGFTFSSYTMSWVRQAPGKGLEWVASISSSGSNTYYPDSVKGRFTISRDNAKNNLYLQMNSLRAEDTALYYCARFDYGSSLDSWGQGTLLTVSSDKTHTEVQLVESGGGLVKPGGSLRLSCAASGFTFSSYTMSWVRQAPGKGLEWVASISSSGSNTYYPDSVKGRFTISRDNAKNNLYLQMNSLRAEDTALYYCARFDYGSSLDSWGQGTLLTVSSDKTHTASTKGPSVFPLAPSSKSTSGGTAALGCLVKDYFPEPVTVSWNSGALTSGVHTFPAVLQSSGLYSLSSVVTVPSSSLGTQTYICNVNHKPSNTKVDKKVEPKSCDKTHTCPPCPAPELLGGPSVFLFPPKPKDTLYITREPEVTCVVVDVSHEDPEVKFNWYVDGVEVHNAKTKPREEQYNNASRVVSVLTVLHQDWLNGKEYKCKVSNKALPAPIEKTISKAKGQPREPQVYTLPPCRDELTKNQVSLWCLVKGFYPSDIAVEWESNGQPENNYKTTPPVLDSDGSFFLYSKLTVDKSRWQQGNVFSCSVMHEALHNHYTQKSLSLSPG heavy 2: QVQLVQSGAEVVKPGSSVKVSCEASGFTFTDSVITWVRQRPGQGLEWIGEIYPGSGNFYYNEKFQGRVTITADKSTSTAYMELSSLRSEDTAVYFCAMRRSSWGQGTLVTVSSASTKGPSVFPLAPSSKSTSGGTAALGCLVKDYFPEPVTVSWNSGALTSGVHTFPAVLQSSGLYSLSSVVTVPSSSLGTQTYICNVNHKPSNTKVDKKVEPKSCDKTHTCPPCPAPELLGGPSVFLFPPKPKDTLYITREPEVTCVVVDVSHEDPEVKFNWYVDGVEVHNAKTKPREEQYNNASRVVSVLTVLHQDWLNGKEYKCKVSNKALPAPIEKTISKAKGQPREPQVCTLPPSRDELTKNQVSLSCAVKGFYPSDIAVEWESNGQPENNYKTTPPVLDSDGSFFLVSKLTVDKSRWQQGNVFSCSVMHEALHNRFTQKSLSLSPG light 2: DVVMTQTPLSLSVTPGQPASISCKSSQTIVHSNSKTYLEWYLQKPGQSPQLLIYKVSSRFSGVPDRFSGSGSGTDFTLKISRVEAEDVGVYYCFQGSHVPLTFGQGTKLEIKRTVAAPSVFIFPPSDEQLKSGTASVVCLLNNFYPREAKVQWKVDNALQSGNSQESVTEQDSKDSTYSLSSTLTLSKADYEKHKVYACEVTHQGLSSPVTKSFNRGEC | 1.6 | 0.00433 | 2.7e+06 |
| triAb 3437 (bispecific antibody, Trivalent: CODV arm VH1/VL1 C21_Hu11, VH2/VL2 C3_Hu11) light 1: EIVLTQSPDFLSVTPKEKVTLTCRASQSIGNNLHWYQQKSDQSPKLLIKYASQSISGIPSRFSGSGSGTDFTLTINSVEAEDAATYFCQQSKSWPRTFGGGTKLEIKDKTHTEIVLTQSPDFLSVTPKEKVTLSCRASQSISNYLHWYQQKSDQSPKLLIKYASQSISGIPSRFSGSGSGTDFTLSINSVEAEDAATYFCQQSKSWPRTFGGGTKLEIKDKTHTRTVAAPSVFIFPPSDEQLKSGTASVVCLLNNFYPREAKVQWKVDNALQSGNSQESVTEQDSKDSTYSLSSTLTLSKADYEKHKVYACEVTHQGLSSPVTKSFNRGEC heavy 1: EVQLVESGGGLVKPGGSLRLSCAASGFTFSSYTMSWVRQAPGKGLEWVASISSSGSNTYYPDSVKGRFTISRDNAKNNLYLQMNSLRAEDTALYYCARFDYGSSLDSWGQGTLLTVSSDKTHTEVQLVESGGGLVKPGGSLRLSCAASGFTFSSYTMSWVRQAPGKGLEWVASISSSGSNTYYPDSVKGRFTISRDNAKNNLYLQMNSLRAEDTALYYCARFDYGSSLDSWGQGTLLTVSSDKTHTASTKGPSVFPLAPSSKSTSGGTAALGCLVKDYFPEPVTVSWNSGALTSGVHTFPAVLQSSGLYSLSSVVTVPSSSLGTQTYICNVNHKPSNTKVDKKVEPKSCDKTHTCPPCPAPELLGGPSVFLFPPKPKDTLYITREPEVTCVVVDVSHEDPEVKFNWYVDGVEVHNAKTKPREEQYNNASRVVSVLTVLHQDWLNGKEYKCKVSNKALPAPIEKTISKAKGQPREPQVYTLPPCRDELTKNQVSLWCLVKGFYPSDIAVEWESNGQPENNYKTTPPVLDSDGSFFLYSKLTVDKSRWQQGNVFSCSVMHEALHNHYTQKSLSLSPG heavy 2: QVQLVQSGAEVVKPGSSVKVSCEASGFTFTDSVITWVRQRPGQGLEWIGEIYPGSGNFYYNEKFQGRVTITADKSTSTAYMELSSLRSEDTAVYFCAMRRSSWGQGTLVTVSSASTKGPSVFPLAPSSKSTSGGTAALGCLVKDYFPEPVTVSWNSGALTSGVHTFPAVLQSSGLYSLSSVVTVPSSSLGTQTYICNVNHKPSNTKVDKKVEPKSCDKTHTCPPCPAPELLGGPSVFLFPPKPKDTLYITREPEVTCVVVDVSHEDPEVKFNWYVDGVEVHNAKTKPREEQYNNASRVVSVLTVLHQDWLNGKEYKCKVSNKALPAPIEKTISKAKGQPREPQVCTLPPSRDELTKNQVSLSCAVKGFYPSDIAVEWESNGQPENNYKTTPPVLDSDGSFFLVSKLTVDKSRWQQGNVFSCSVMHEALHNRFTQKSLSLSPG light 2: DVVMTQTPLSLSVTPGQPASISCKSSQTIVHSNSKTYLEWYLQKPGQSPQLLIYKVSSRFSGVPDRFSGSGSGTDFTLKISRVEAEDVGVYYCFQGSHVPLTFGQGTKLEIKRTVAAPSVFIFPPSDEQLKSGTASVVCLLNNFYPREAKVQWKVDNALQSGNSQESVTEQDSKDSTYSLSSTLTLSKADYEKHKVYACEVTHQGLSSPVTKSFNRGEC | 1.87 | 0.0045 | 2.41e+06 |
| triAb 3439 (bispecific antibody, Trivalent: CODV arm VH1/VL1 C21_Hu21, VH2/VL2 C3_Hu10) light 1: EIVLTQSPDFLSVTPKEKVTLTCRASQSISNNLHWYQQKSDQSPKLLIKYASQSISGIPSRFSGSGSGTDFTLTINSVEAEDAATYFCQQSKSWPRTFGGGTKLEIKDKTHTEIVLTQSPDFLSVTPGEKVTLTCRASQSISNYLHWYQQKSDQSPKLLIKYASQSISGVPSRFSGSGSGTDFTLTISSVEAEDFATYFCQQSKSWPRTFGGGTKLEIKDKTHTRTVAAPSVFIFPPSDEQLKSGTASVVCLLNNFYPREAKVQWKVDNALQSGNSQESVTEQDSKDSTYSLSSTLTLSKADYEKHKVYACEVTHQGLSSPVTKSFNRGEC heavy 1: EVQLVESGGGLVQPGGSLRLSCAASGFTFSSYTMSWVRQAPGKGLEWVATISSSGDNTYYPDSVKGRFTISRDNSKNTLYLQMSSLRAEDTALYYCARFDYGSSLDSWGQGTTLTVSSDKTHTEVQLVESGGGLVKPGGSLRLSCAASGFTFSSYTMSWVRQAPGKGLEWVASISSSGSNTYYPDSVKGRFTISRDNAKNNLYLQMNSLRAEDTALYYCARFDYGSSLDSWGQGTLLTVSSDKTHTASTKGPSVFPLAPSSKSTSGGTAALGCLVKDYFPEPVTVSWNSGALTSGVHTFPAVLQSSGLYSLSSVVTVPSSSLGTQTYICNVNHKPSNTKVDKKVEPKSCDKTHTCPPCPAPELLGGPSVFLFPPKPKDTLYITREPEVTCVVVDVSHEDPEVKFNWYVDGVEVHNAKTKPREEQYNNASRVVSVLTVLHQDWLNGKEYKCKVSNKALPAPIEKTISKAKGQPREPQVYTLPPCRDELTKNQVSLWCLVKGFYPSDIAVEWESNGQPENNYKTTPPVLDSDGSFFLYSKLTVDKSRWQQGNVFSCSVMHEALHNHYTQKSLSLSPG heavy 2: QVQLVQSGAEVVKPGSSVKVSCEASGFTFTDSVITWVRQRPGQGLEWIGEIYPGSGNFYYNEKFQGRVTITADKSTSTAYMELSSLRSEDTAVYFCAMRRSSWGQGTLVTVSSASTKGPSVFPLAPSSKSTSGGTAALGCLVKDYFPEPVTVSWNSGALTSGVHTFPAVLQSSGLYSLSSVVTVPSSSLGTQTYICNVNHKPSNTKVDKKVEPKSCDKTHTCPPCPAPELLGGPSVFLFPPKPKDTLYITREPEVTCVVVDVSHEDPEVKFNWYVDGVEVHNAKTKPREEQYNNASRVVSVLTVLHQDWLNGKEYKCKVSNKALPAPIEKTISKAKGQPREPQVCTLPPSRDELTKNQVSLSCAVKGFYPSDIAVEWESNGQPENNYKTTPPVLDSDGSFFLVSKLTVDKSRWQQGNVFSCSVMHEALHNRFTQKSLSLSPG light 2: DVVMTQTPLSLSVTPGQPASISCKSSQTIVHSNSKTYLEWYLQKPGQSPQLLIYKVSSRFSGVPDRFSGSGSGTDFTLKISRVEAEDVGVYYCFQGSHVPLTFGQGTKLEIKRTVAAPSVFIFPPSDEQLKSGTASVVCLLNNFYPREAKVQWKVDNALQSGNSQESVTEQDSKDSTYSLSSTLTLSKADYEKHKVYACEVTHQGLSSPVTKSFNRGEC | 1.3 | 0.004 | 3.07e+06 |
